In paper PMC10213792 (Acta Pharmaceutica Sinica. B, 2023):
The star is where a group is joined. FITC = O=C1OC2(c3ccc(O)cc3Oc3cc(O)ccc32)c2ccc(NC(=S)*)cc21

B1: His-tagged SepFc (N-terminal truncated version of SepF, amino acids 115-203) (domain or fragment)
chain: EMTRPRFGSWLRNSTRGALAMDPRRMAMMFEDGHPLSKITTLRPKDYSEARTIGERFRDGSPVIMDLVSMDNADAKRLVDFAAGLAFAL

What was measured:
SepF = SepF (Mycobacterium tuberculosis, UniProt P9WGJ5); test: SPR; assay type: binding
His-tagged FtsZ = target: T1, His-tagged FtsZ (M. tuberculosis H37Rv, UniProt P9WN95 1-379); test: SPR
T1 sequence: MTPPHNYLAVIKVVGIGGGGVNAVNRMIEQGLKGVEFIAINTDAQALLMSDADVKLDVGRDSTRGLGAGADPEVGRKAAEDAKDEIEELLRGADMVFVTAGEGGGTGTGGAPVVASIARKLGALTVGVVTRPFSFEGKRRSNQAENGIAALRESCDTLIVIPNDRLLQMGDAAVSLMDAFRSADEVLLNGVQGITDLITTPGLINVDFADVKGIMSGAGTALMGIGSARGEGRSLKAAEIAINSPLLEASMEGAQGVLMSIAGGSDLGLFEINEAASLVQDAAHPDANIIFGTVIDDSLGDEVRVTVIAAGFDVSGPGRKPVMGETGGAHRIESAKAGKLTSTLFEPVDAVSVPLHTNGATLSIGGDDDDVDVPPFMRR

[1] = target: B1; test: fluorescence polarisation

SepF, sequence (P9WGJ5 115-203): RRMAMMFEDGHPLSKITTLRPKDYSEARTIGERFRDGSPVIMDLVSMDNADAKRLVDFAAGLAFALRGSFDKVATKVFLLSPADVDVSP

OC(COc1ccc2ccccc2c1)CN1CCCN(CC(O)COc2ccc3ccccc3c2)CC1 (stereo not drawn) [T0349, 1-{4-[2-hydroxy-3-(naphthalen-2-yloxy)propyl]-1,4-diazepan-1-yl}-3-(naphthalen-2-yloxy) propan-2-ol] showed a Kd (SepF) of 46.8 µM.

B1 gave a Kd (His-tagged FtsZ) of 5.16 µM.

{FITC}-SIGGDDDDVDVPPFMRR-OH [FITC-FtsZ (FITC-SIGGDDDDVDVPPFMRR-OH, 363-379 amino acids of the full-length FtsZ)] gave a Kd [1] of 0.0186 µM.
